From patent US20090318342A1, “Compounds” (IMPERIAL INNOVATIONS LIMITED, priority 2005, published 2009) come the findings set out here.

Where two headings read alike, the source gives them in different places. Some results are limits rather than exact numbers.

Format in all cases: biochemical
Experiment [1] has as its target T1, catalytic domain of stromelysin 1 (MMP-3(ΔC)) (Homo sapiens, UniProt P08254).
T1 construct: the catalytic domains of stromelysin 1 (MMP-3(ΔC)) and membrane-type 1 MMP (MMP-14)
Kind of experiment: Enzyme inhibition kinetic study, MMP-3. The method, then:
(§1) Enzyme inhibition kinetic studies—Inhibition kinetic studies for MMPs and TACE were carried out as described previously (19, 27) with modifications. Purified N-TIMP-3 and mutants were dialyzed against 20 mM Tris-HCl (pH 7.0), 50 mM NaCl containing 20% glycerol, centrifuged at 14,000 rpm for 10 min to remove any precipitate, and protein concentration was re-measured before conducting inhibition assays. Since NaCl inhibits the activity of the TACE ectodomain in vitro (28), we adjusted the final concentration of NaCl to 1 mM in all assays with TACE. Equal volumes (10% of total assay volume) of diluted solutions of N-TIMP-3 and mutants were added to TACE assays, resulting in a final pH of 8.8.
(§2) (Eq. 1) Tight binding inhibition:
(§3) where v is the experimentally determined reaction velocity, v0 is the uninhibited activity, E is enzyme concentration, I is inhibitor concentration, K is the apparent inhibition constant (Ki^(app)) and h is the Hill coefficient.
(§4) Inhibitory properties of mutants with purified metalloproteinases—The inhibitory activities of wild-type N-TIMP-3 and the two mutants were determined with MMPs representing four different sub-groups: full-length collagenase 1 (MMP-1), gelatinase A (MMP-2), and the catalytic domains of stromelysin 1 (MMP-3(ΔC)) and membrane-type 1 MMP (MMP-14). As previously reported for the corresponding mutants of N-TIMP-1 and TIMP-2 (17, 18), both mutations in N-TIMP-3 reduced the inhibitory activity towards the four MMPs by 2 to 3 orders of magnitude (Table I). FIG. 2A highlights the difference in inhibition of MMP-14(CD) by wild-type and mutated N-TIMP-3.
(§5) Ki(app) determinations for MMP-1, MMP-2 and MMP-3 were performed as set out in Example 1.

Experiment [2] concerns the target soluble form of TACE (TACE R651) (Homo sapiens, UniProt P78536). Kind of experiment: Enzyme inhibition kinetic study, TACE. As for the experimental part:
FIG. 2. Inhibition of MMP and TACE by N-TIMP-3 and its mutants. A. Inhibition of MMP-14(CD) by wild-type and mutated N-TIMP-3. Open circles, wild-type N-TIMP-3; closed circles, T2G; and open squares, -1A. B. Comparison of the inhibition of TACE by wild-type N-TIMP-3, N-TIMP-1 and TAPI-2. The inhibitors were incubated with 0.5 nM TACE for 3 hr at room temperature, and the residual enzyme activity was measured with 10 μM Substrate III (R&D Systems). […] Open circles, N-TIMP-3; closed circles, TAPI-2; and open squares, N-TIMP-1. C. Inhibition of TACE (0.5 nM) by wild-type and mutated N-TIMP-3. Open circles, wild-type inhibitor; closed circles, T2G; and open squares, -1A.
as §1, §3
The inhibitory activities of the mutants were also compared with that of wild-type N-TIMP-3 against a soluble form of TACE in which the transmembrane and C-terminal cytoplasmic domains are deleted (TACE R651; (28)). […] The inhibition curve of TACE by wild-type N-TIMP-3 is sigmoid, in striking contrast with the inhibition by TAPI-2 and with the inhibition of MMPs by N-TIMP-3 and N-TIMP-1 (FIGS. 2A, 2B; (31)). Sigmoid inhibition curves were also obtained for TACE with the T2G and -1A mutants of N-TIMP-3 (FIG. 2C).

In experiment [3] the target is T2, full-length collagenase 1 (MMP-1) (Homo sapiens, UniProt P03956).
T2 construct: full-length collagenase 1 (MMP-1)
T2 sequence (P03956 100-469): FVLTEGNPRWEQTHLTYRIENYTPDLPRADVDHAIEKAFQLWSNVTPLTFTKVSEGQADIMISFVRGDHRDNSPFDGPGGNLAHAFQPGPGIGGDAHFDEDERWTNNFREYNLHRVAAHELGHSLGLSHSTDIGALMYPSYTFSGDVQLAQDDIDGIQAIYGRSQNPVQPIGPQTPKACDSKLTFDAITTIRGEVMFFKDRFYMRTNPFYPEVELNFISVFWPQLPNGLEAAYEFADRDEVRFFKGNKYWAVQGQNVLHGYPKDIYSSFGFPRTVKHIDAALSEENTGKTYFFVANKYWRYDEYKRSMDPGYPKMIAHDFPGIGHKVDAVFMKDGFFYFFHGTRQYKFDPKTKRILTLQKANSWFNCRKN
Kind of experiment: Enzyme inhibition kinetic study, MMP-1. As for the experimental part: as §1, §2, §3, §4, §5

The mark [4] stands for this setting: Table 3, read-out: Ki(app) MMP-3.
Setting [5] is: Table II, 0.5 nM TACE, pH 9.0, 1 mM NaCl, fit with equation 3.
Where [6] appears, read: Table II, 0.5 nM TACE, pH 9.0, 1 mM NaCl, fit with equation 3, read-out: Ki(app) TACE.
The mark [7] stands for this setting: Table 3, read-out: Ki(app) MMP-1.
Where [8] appears, read: higher pH and low ionic strength (TACE conditions), read-out: Ki MMP-1 under the conditions used for TACE activity measurements.

T1 sequence (P08254 100-272 limits assumed, stated change not applied): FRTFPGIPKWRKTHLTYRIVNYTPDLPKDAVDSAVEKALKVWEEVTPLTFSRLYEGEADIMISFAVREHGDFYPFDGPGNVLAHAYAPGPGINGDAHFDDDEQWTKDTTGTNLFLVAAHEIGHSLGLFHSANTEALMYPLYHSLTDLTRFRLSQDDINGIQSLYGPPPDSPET
Sequence of soluble form of TACE (TACE R651) (P78536 215-651): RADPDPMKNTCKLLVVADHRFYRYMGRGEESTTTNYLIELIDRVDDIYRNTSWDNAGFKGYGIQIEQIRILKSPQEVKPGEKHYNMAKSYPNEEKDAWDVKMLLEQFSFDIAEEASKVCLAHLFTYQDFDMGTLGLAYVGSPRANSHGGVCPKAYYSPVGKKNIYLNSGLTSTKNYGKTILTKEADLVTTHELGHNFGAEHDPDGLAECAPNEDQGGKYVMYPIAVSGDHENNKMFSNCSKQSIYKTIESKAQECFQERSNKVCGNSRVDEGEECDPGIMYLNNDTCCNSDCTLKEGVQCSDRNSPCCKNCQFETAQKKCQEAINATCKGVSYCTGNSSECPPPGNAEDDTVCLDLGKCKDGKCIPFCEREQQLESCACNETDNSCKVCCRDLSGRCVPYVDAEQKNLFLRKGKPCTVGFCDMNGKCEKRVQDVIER

B1: N-TIMP-3: N-terminal inhibitory domain of TIMP-3 (residues 1 to 121), C-terminally His-tagged, wild-type (protein)
chain: CTCSPSHPQDAFCNSDIVIRAKVVGKKLVKEGPFGTLVYTIKQMKMYRGFTKMPHVQYIHTEASESLCGLKLEVNKYQYLLTGRVYDGKMYTGLCNFVERWDQLTLSQRKGLNYRYHLGCN
Consider B1, for which the Ki in experiment [1] (setting [4]) came out at 1.8 ± 0.4 nM; in experiment [2] (setting [6]), 13.7 ± 0.2 nM; in experiment [2] (pH 7.5, sigmoid inhibition curves, read-out: Ki against TACE at pH 7.5) it was 26 ± 3 nM; in experiment [3] (setting [7]) it was 8.2 ± 2 nM; in experiment [3] (setting [8]), 1.6 nM. Moreover, the “Inhibition of TACE activity (in words)” value in experiment [2] (FIG. 2B, 0.5 nM TACE, pH 9.0, 1 mM NaCl) was “effectively inhibited”. In addition, the “h (Hill coefficient) for TACE inhibition” value in experiment [2] (setting [5]) is listed as 3.59 ± 0.16.

B2: -1A: N-TIMP-3 mutant with the addition of an N-terminal alanine extension (-1A) (protein)
chain: ACTCSPSHPQDAFCNSDIVIRAKVVGKKLVKEGPFGTLVYTIKQMKMYRGFTKMPHVQYIHTEASESLCGLKLEVNKYQYLLTGRVYDGKMYTGLCNFVERWDQLTLSQRKGLNYRYHLGCN
Turning to B2, the Ki in experiment [1] (setting [4]) is more than 1000 nM; in experiment [1] (Table I, enzyme 1 nM, pH 7.5, read-out: Ki(app) MMP-3(ΔC)), approximately 3300 nM; in experiment [2] (setting [6]), 33.9 ± 2.8 nM; in experiment [3] (setting [7]), more than 500 nM; in experiment [3] (Table I, enzyme 5 nM, pH 7.5, read-out: Ki(app) MMP-1), approximately 1300 nM; in experiment [3] (setting [8]) it was 412 nM. In addition, the “h (Hill coefficient) for TACE inhibition” value in experiment [2] (setting [5]) was 1.9 ± 0.22.

B3: (-2A)N-TIMP-3: N-TIMP-3 mutant with two alanine residues on the N-terminal side of Cysteine1 of the TIMP-3 sequence (protein)
chain: AACTCSPSHPQDAFCNSDIVIRAKVVGKKLVKEGPFGTLVYTIKQMKMYRGFTKMPHVQYIHTEASESLCGLKLEVNKYQYLLTGRVYDGKMYTGLCNFVERWDQLTLSQRKGLNYRYHLGCN
Consider B3, for which, in experiment [1] (100 nM), the “Inhibition of MMP-3” value is given as “no inhibition”. In experiment [2] (100 nM), the “Inhibition of TACE activity” value was 80-90%. Further, the “Inhibition of MMP-1” value in experiment [3] (100 nM) is “no inhibition”.
